Assay results as given in paper PMC9214244, “Multivalent Interaction of Beta-Catenin With its Intrinsically Disordered Binding Partner Adenomatous Polyposis Coli” (Frontiers in Molecular Biosciences, 2022).
Where no end group is shown, it is not given here.

T1: armadillo (ARM) repeat domain of human β-catenin (residues 134–671) (human, UniProt P35222 134-671)
T1 construct: two residues left at the N-terminus after thrombin cleavage of GST; β-catenin, human, armadillo repeat domain, residues 134-671; plasmid a gift from W. I. Weis; source: E. coli C41, purified (glutathione-Sepharose, thrombin cleavage on the resin, Mono-Q); not shown: GST, N-terminal, cleaved
T1 sequence: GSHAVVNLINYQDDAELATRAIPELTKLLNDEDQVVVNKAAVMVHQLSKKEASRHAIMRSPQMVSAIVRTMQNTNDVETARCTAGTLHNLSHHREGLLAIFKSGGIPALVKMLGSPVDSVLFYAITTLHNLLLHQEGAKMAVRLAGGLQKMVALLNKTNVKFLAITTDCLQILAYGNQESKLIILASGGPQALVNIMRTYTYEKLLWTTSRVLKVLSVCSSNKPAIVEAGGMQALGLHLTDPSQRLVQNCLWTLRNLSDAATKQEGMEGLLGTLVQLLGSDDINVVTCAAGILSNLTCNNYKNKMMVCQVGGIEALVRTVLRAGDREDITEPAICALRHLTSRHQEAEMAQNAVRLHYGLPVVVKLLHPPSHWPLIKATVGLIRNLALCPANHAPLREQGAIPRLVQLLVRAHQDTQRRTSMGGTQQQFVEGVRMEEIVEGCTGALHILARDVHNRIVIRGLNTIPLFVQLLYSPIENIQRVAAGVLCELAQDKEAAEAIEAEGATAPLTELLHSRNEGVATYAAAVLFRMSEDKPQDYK

B1: APCabc D1486S, fluorescein-labelled at Cys 1501 (domain or fragment)
chain: SGPKQAAVNAAVQRVQVLPDASTLLHFATESTPDGFSC(fluorescein‑maleimide)SSSLSALSLDEPFIQKDVELRIMPPVQEND
B2: APC R3 construct with E1494T (domain or fragment)
chain: SGPKQAAVNAAVQRVQVLPDADTLLHFATTSTPDGFSC(fluorescein‑maleimide)SSSLSALSLDEPFIQKDVELRIMPPVQEND
modifications: not fully specified
B3: APCb, lysine-binding domain b of APC R3, fluorescein-labelled at Cys 1501 (domain or fragment)
chain: GSPDADTLLHFATESTPDGFSC(fluorescein‑maleimide)
notes: two residues left at the N-terminus after thrombin cleavage of GST; adenomatous polyposis coli (APC), R3 region, subdomain b, residues 1483-1502; source: E. coli C41, purified (glutathione-Sepharose, thrombin cleavage on the resin, differential filtration); not shown: GST, N-terminal, cleaved
B4: APCab, APC R3 subdomains a and b, fluorescein-labelled at Cys 1501 (domain or fragment)
chain: GSSGPKQAAVNAAVQRVQVLPDADTLLHFATESTPDGFSC(fluorescein‑maleimide)
notes: two residues left at the N-terminus after thrombin cleavage of GST; adenomatous polyposis coli (APC), R3 region, subdomains a (1465-1483) and b (1483-1502); source: E. coli C41, purified (glutathione-Sepharose, thrombin cleavage on the resin, differential filtration); not shown: GST, N-terminal, cleaved

Key:
[1] = biological target: armadillo (ARM) repeat domain of human β-catenin (residues 134–671) (human) (UniProt P35222); assay: other fluorescence titration; competition: 20 nM Alexa-488-APCbc and 200 nM β-catenin incubated 30 min, then unlabelled APCbc variants titrated; PBS, 1 mM DTT; 25°C
[2] = biological target: T1, armadillo (ARM) repeat domain of human …; assay: fluorescence polarisation; fluorescence anisotropy; β-catenin titrated into 10 nM fluorescein-labelled APC construct; PBS, 1 mM DTT; 15°C; adjusted anisotropy fitted to a Hill equation; conditions: both partners purified
[3] = biological target: T1, armadillo (ARM) repeat domain of human …; assay: as above; conditions: both partners purified; remark: listed apart in the source
[4] = biological target: T1, armadillo (ARM) repeat domain of human …; assay: stopped-flow fluorescence; association: 25 nM fluorescein-labelled APC mixed 1:1 by volume with 250-2,000 nM β-catenin (pseudo first-order); dissociation: pre-formed 1:1 complex (200 nM) mixed with 10 times molar excess of the same APC construct; PBS, 1 mM DTT; 15°C; conditions: both partners purified

Molecule | fold increase in affinity (IC50) against APCbc [1] [fold] | Kd [2] [nM] | also measured
APCbc S1505E (S2), unlabelled (from UniProt P25054 1483-1533) (domain or fragment) | 5 |  | 
APCbc S1507E (S3), unlabelled (from UniProt P25054 1483-1533) (domain or fragment) | 30 |  | 
B1 |  | 2050 | 
B2 |  |  | Kd [3]: > 5000 nM
B3 |  | 246 | 
B4 |  | 89.9 | kon [4]: 1.33e+07 M⁻¹ s⁻¹
